Data on 55 molecules can be found in patent US20200292534A1.

The target of this assay is T1, NLpoly11S.
T1 chain: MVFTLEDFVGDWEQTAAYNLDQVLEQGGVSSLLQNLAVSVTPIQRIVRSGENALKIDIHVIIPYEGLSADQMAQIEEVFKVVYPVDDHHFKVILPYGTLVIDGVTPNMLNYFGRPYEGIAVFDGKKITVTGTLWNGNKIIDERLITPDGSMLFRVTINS
Put plainly: luminescence complementation titration, one-site specific binding fit.

Regarding VEGYRLFKEAS (modifications not checked) [array2.62], the Bmax amounted to 2380 and the Kd turned out to be 22.1 µM.
On to VEGYRLFQKAS (modifications not checked) [array2.65], for which the Bmax was determined as 10600 and the Kd amounted to 1.93 µM.
With VEGYRLFQKES (modifications not checked) [array2.66], the Bmax was 3490 and the equilibrium dissociation constant (Kd) came to 2.87 µM.
On the same counts, the results for VEGYRLFEKEL (modifications not checked) [array2.102] are 962 and 5.79 µM.
On the same counts, the results for VEGYRLFQKIL (modifications not checked) [array2.91] are 50500 and 2.08 µM.
As for VEGYRLFQQIS (modifications not checked) [array2.67], the Bmax amounted to 5220 and the Kd worked out at 8.14 µM.
The corresponding values for VTGYRLFKKIS (modifications not checked) [array2.1] are 135000 and 0.0133 µM.
VEGYRLFQQEL (modifications not checked) [array2.96] returned a Bmax of 105000 and a Kd of 99.4 µM.
For VEGYRLFKQEL (modifications not checked) [array2.87], the Bmax came out at 1790 and the Kd was found to be 12.6 µM.
As to VEGYRLFKQIS (modifications not checked) [array2.58], the Bmax is 21500 and the Kd came to 2.09 µM.
Consider VEGYRLFEEAS (modifications not checked) [array2.80], for which the Bmax was 383000 and the Kd was 1420 µM.
With VEGYRLFKKIL (modifications not checked) [array2.82], the Bmax came to 43400 and the Kd is 0.563 µM.
In turn, VEGYRLFKKES (modifications not checked) [array2.57] displayed a Bmax of 3370 and a Kd of 0.891 µM.
On the same counts, the results for VTGYRLFKQAS (modifications not checked) [array2.5] are 31000 and 1.95 µM.
Consider VEGYRLFEKAS (modifications not checked) [array2.74], for which the Bmax stood at 3810 and the Kd came to 4.14 µM.
Take VTGYRLFKEIS (modifications not checked) [array2.7]: the Bmax came out at 32000 and the Kd amounted to 4.44 µM.
VEGYRLFKQES (modifications not checked) [array2.60] registered a Bmax of 4350 and a Kd of 10.6 µM.
VEGYRLFQEIS (modifications not checked) [array2.70] had a Bmax of 29200 and a Kd of 230 µM.
For the molecule VEGYRLFQKAL (modifications not checked) [array2.92], the Bmax turned out to be 12300 and the Kd came to 2.02 µM.
VTGYRLFKQES (modifications not checked) [array2.6] gave a Bmax of 5010 and a Kd of 1.35 µM.
The corresponding values for VTGYRLFQKIS (modifications not checked) [array2.10] are 113000 and 0.0812 µM.
For VTGYRLFQQES (modifications not checked) [array2.15], the Bmax amounted to 5200 and the Kd came out at 7.49 µM.
VEGYRLFKQAL (modifications not checked) [array2.86] had a Bmax of 2300 and a Kd of 2.27 µM.
In turn, VTGYRLFQKES (modifications not checked) [array2.12] showed a Bmax of 17200 and a Kd of 0.417 µM.
With VTGYRLFKEAS (modifications not checked) [array2.8], the Bmax came out at 3930 and the Kd is 2.57 µM.
For VEGYRLFEQIS (modifications not checked) [array2.76], the Bmax is 18000 and the Kd is 52.8 µM.
The corresponding values for VEGYRLFEQAS (modifications not checked) [array2.77] are 26900 and 48.3 µM.
In turn, VEGYRLFEKES (modifications not checked) [array2.75] registered a Bmax of 1170 and a Kd of 2.97 µM.
For VEGYRLFQEAL (modifications not checked) [array2.98], the Bmax amounted to 2700 and the Kd was found to be 99.9 µM.
VEGYRLFQKIS (modifications not checked) [array2.64] gave a Bmax of 36500 and a Kd of 0.586 µM.
As for VTGYRLFQQAS (modifications not checked) [array2.14], the Bmax was 4350 and the Kd amounted to 1.11 µM.
Take VEGYRLFKEES (modifications not checked) [array2.63]: the Bmax is 17300 and the Kd is 220 µM.
With VEGYRLFEKIS (modifications not checked) [array2.73], the Bmax is 22500 and the dissociation constant Kd turned out to be 2.15 µM.
The molecule VEGYRLFKKAL (modifications not checked) [array2.83] displayed a Bmax of 20800 and a Kd of 1.59 µM.
On the same counts, the results for VTGYRLFKEES (modifications not checked) [array2.9] are 1450 and 3.86 µM.
Molecule VEGYRLFQEAS (modifications not checked) [array2.71] returned a Bmax of 44900 and a dissociation constant Kd of 24 µM.
For the molecule VTGYRLFQQIS (modifications not checked) [array2.13], the Bmax was determined as 19400 and the Kd was 0.876 µM.
As to VEGYRLFEQAL (modifications not checked) [array2.104], the Bmax is 9880 and the equilibrium dissociation constant (Kd) stood at 336 µM.
The corresponding values for VEGYRLFQQAS (modifications not checked) [array2.68] are 3750 and 20 µM.
Molecule VEGYRLFEKAL (modifications not checked) [array2.101] registered a Bmax of 6370 and a Kd of 12.6 µM.
VEGYRLFKEAL (modifications not checked) [array2.89] yielded a Bmax of 5570 and a Kd of 42.4 µM.
The corresponding values for VEGYRLFKKEL (modifications not checked) [array2.84] are 7830 and 1.41 µM.
In the case of VEGYRLFQQAL (modifications not checked) [array2.95], the Bmax was 38200 and the Kd was found to be 18.8 µM.
As for VEGYRLFKEEL (modifications not checked) [array2.90], the Bmax was 12200 and the Kd was determined as 101 µM.
VTGYRLFQKAS (modifications not checked) [array2.11]: the Bmax was 80900 and the Kd was 0.749 µM.
As to VEGYRLFKEIS (modifications not checked) [array2.61], the Bmax amounted to 5460 and the Kd turned out to be 14.4 µM.
As for VEGYRLFQQIL (modifications not checked) [array2.94], the Bmax stood at 2280 and the Kd is 9.39 µM.
The corresponding values for VEGYRLFKEIL (modifications not checked) [array2.88] are 9830 and 17.8 µM.
The corresponding values for VEGYRLFEQES (modifications not checked) [array2.78] are 39400 and 252 µM.
With VEGYRLFKKIS (modifications not checked) [array2.55], the Bmax was 42400 and the Kd was found to be 0.078 µM.
Consider VEGYRLFKQIL (modifications not checked) [array2.85], for which the Bmax was determined as 31400 and the Kd stood at 10.3 µM.
Turning to VEGYRLFKQAS (modifications not checked) [array2.59], the Bmax was 2300 and the equilibrium dissociation constant (Kd) came to 2.09 µM.
The corresponding values for VEGYRLFEKIL (modifications not checked) [array2.100] are 35000 and 10.6 µM.
VEGYRLFKKAS (modifications not checked) [array2.56] returned a Bmax of 15900 and a Kd of 0.641 µM.
Take VEGYRLFQKEL (modifications not checked) [array2.93]: the Bmax amounted to 4090 and the Kd turned out to be 1.69 µM.

As usually defined, the Kd is the concentration at which binding is half-saturated.
